Measured values taken from US20050175995A1 (UNIVERSITY OF UTAH RESEARCH FOUNDATION, published 2005).
Changes are numbered by the printed parent chain. In names and notes the source's numbering stands.

Target: T1, wild-type (WT) Kir2.1 subunit (human, UniProt P63252 1-427)
T1 sequence: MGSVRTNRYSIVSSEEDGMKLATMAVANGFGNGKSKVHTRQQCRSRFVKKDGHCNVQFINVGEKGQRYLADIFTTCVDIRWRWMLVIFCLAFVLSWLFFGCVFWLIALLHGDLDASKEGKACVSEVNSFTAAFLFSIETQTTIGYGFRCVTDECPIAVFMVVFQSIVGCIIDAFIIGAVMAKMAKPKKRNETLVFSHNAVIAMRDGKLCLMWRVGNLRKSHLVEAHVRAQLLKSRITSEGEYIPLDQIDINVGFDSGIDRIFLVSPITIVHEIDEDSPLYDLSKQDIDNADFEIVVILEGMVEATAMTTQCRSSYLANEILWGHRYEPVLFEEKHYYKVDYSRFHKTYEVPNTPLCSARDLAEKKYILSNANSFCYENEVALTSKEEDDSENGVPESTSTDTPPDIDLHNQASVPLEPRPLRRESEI
Experiment: cell-based or functional assay

B1: D71V Kir2.1 mutant subunit (other)
chain: T1 sequence with D71V
How did the “Reduction in current on co-expression of WT and D71V subunits, relative to WT current” value turn out when B1 was run?
Its value is ~0.938 fraction of WT current.
